Results as given in patent US20030148958A1 (PROCTER AND GAMBLE, published 2003).
Ends that are not written are not given here.

T1: corticotropin releasing factor 2 receptor
T1 sequence (Q13324 whole entry, species assumed, looked up): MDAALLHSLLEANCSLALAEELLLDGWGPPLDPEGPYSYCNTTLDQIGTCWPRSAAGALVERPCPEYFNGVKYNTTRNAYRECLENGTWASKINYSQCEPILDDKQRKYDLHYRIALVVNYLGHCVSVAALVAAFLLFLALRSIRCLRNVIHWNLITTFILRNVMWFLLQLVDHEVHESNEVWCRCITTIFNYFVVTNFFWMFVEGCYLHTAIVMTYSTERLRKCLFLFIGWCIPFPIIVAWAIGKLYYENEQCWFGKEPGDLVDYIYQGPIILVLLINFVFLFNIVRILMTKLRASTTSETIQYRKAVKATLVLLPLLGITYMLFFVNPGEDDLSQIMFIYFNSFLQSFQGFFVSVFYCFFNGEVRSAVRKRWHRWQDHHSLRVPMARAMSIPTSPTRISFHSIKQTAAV

B1: SEQ ID NO 185 (peptide)
peptide: DNPSLSIDLPFHLLRTLLELARTQSQRERAEQNAIIFASV-NH2
B2: SEQ ID NO 183 (peptide)
peptide: DNPSLSIDLPFYLLRTLLELARTQSQRERAEQNAIIFASV-NH2
B3: SEQ ID NO 168 (peptide)
peptide: IVLSLDVPIGLLQILIEIEKQEKEKQQAATTNARILARV-NH2
B4: SEQ ID NO 179 (peptide)
peptide: DNPSLSIDLPLHLLRTLLELARTQSQRERAEQNAIIFASV-NH2
B5: SEQ ID NO 182 (peptide)
peptide: DNPSLSIDLPFQLLRTLLELARTQSQRERAEQNAIIFASV-NH2
B6: SEQ ID NO 180 (peptide)
peptide: DNPSLSIDLPFLLLRTLLELARTQSQRERAEQNAIIFASV-NH2
B7: SEQ ID NO 17 (peptide)
peptide: ZGPPISIDLPFQLLRKMIEIEKQEKEKQQATTNRLLLATV
modifications: C-terminal amide
B8: SEQ ID NO 190 (peptide)
peptide: ZGPPISIDLPFVLLRKMIEIEKQEKEKQQAANNRLLLDTI
modifications: C-terminal amide
B9: SEQ ID NO 189 (peptide)
peptide: ZGPPISIDLPFILLRKMIEIEKQEKEKQQAANNRLLLDTI
modifications: C-terminal amide
B10: SEQ ID NO 18 (peptide)
peptide: ZGPPISIDLPFQLLRKMIEIEKQEKEKQQATTNRLLLDRV
modifications: C-terminal amide
B11: SEQ ID NO 19 (peptide)
peptide: ZGPPISIDLPFQLLRKMIEIEKQEKEKQQATTNRLLLARV
modifications: C-terminal amide
B12: SEQ ID NO 172 (peptide)
peptide: ZGPPISIDVPFQLLRKMIEIEKQEKEKQQATTNARILARV
modifications: C-terminal amide
B13: SEQ ID NO 191 (peptide)
peptide: ZGPPISIDLPFLLLRKMIEIEKQEKEKQQAANNRLLLDTI
modifications: C-terminal amide
B14: SEQ ID NO 181 (peptide)
peptide: DNPSLSIDLPFILLRTLLELARTQSQRERAEQNAIIFASV-NH2

Each binder was assayed against corticotropin releasing factor 1 receptor (assay: cell-based or functional assay).

B1 and B2 are within 1.5-fold of each other in “CRF1R EC50” value: 358 nM for the first, 415 nM for the second.

Going from B3 to B4, the “CRF1R EC50” value falls from 1000 nM to 477 nM (2.1-fold).

Going from B5 to B6, the “CRF1R EC50” value falls from 409 nM to 125 nM (3.3-fold).

B7 and B8 cannot be ordered by “CRF1R EC50” value: 260 nM for the first, greater than 100 nM for the second.

Compared with B9, B10 is 1.7-fold higher in “CRF1R EC50” value: 62.2 nM for the first, 106 nM for the second.

First: B11
Second: B12
The “CRF1R EC50” value of the first is 4.3-fold lower: 232 nM for the first, 1000 nM for the second.

First: B13
Second: B14
The “CRF1R EC50” value of the first is 2.4-fold lower: 63.7 nM for the first, 154 nM for the second.

First: B1
Second: B2
The “CRF1R Emax” value of the first is higher: 95.8% for the first, 57.5% for the second.

Going from B3 to B4, the “CRF1R Emax” value rises from 52% to 78.9%.

Going from B5 to B6, the “CRF1R Emax” value rises from 89.7% to 99.3%.

Compared with B7, B8 is lower in “CRF1R Emax” value: 98% for the first, 9% for the second.

Compared with B9, B10 is higher in “CRF1R Emax” value: 57% for the first, 100% for the second.

Compared with B11, B12 is lower in “CRF1R Emax” value: 83% for the first, 68% for the second.

First: B13
Second: B14
The “CRF1R Emax” value of the first is lower: 65% for the first, 100% for the second.

These binders were tested against T1, corticotropin releasing factor 2 … (assay: cell-based or functional assay).

B1 and B2 are within 1.5-fold of each other in “CRF2R EC50” value: 8.98 nM for the first, 7.93 nM for the second.

First: B3
Second: B4
The “CRF2R EC50” value of the first is 2.1-fold lower: 4.9 nM for the first, 10.2 nM for the second.

Going from B5 to B6, the “CRF2R EC50” value falls from 7.21 nM to 3.14 nM (2.3-fold).

First: B7
Second: B8
The “CRF2R EC50” value of the first is 3.9-fold lower: 10.2 nM for the first, 39.6 nM for the second.

B9 and B10 are within 1.5-fold of each other in “CRF2R EC50” value: 7 nM for the first, 5.29 nM for the second.

Compared with B11, B12 is 1.8-fold higher in “CRF2R EC50” value: 7.42 nM for the first, 13.5 nM for the second.

Compared with B13, B14 is 1.6-fold lower in “CRF2R EC50” value: 8.3 nM for the first, 5.22 nM for the second.

B1 and B2 are the same in “CRF2R Emax” value: 100% for the first, 100% for the second.

First: B3
Second: B4
The “CRF2R Emax” value of the first is lower: 75% for the first, 92.5% for the second.

First: B5
Second: B6
The “CRF2R Emax” value of the first is lower: 91.4% for the first, 95.7% for the second.

Compared with B7, B8 is lower in “CRF2R Emax” value: 96% for the first, 31% for the second.

Going from B9 to B10, the “CRF2R Emax” value rises from 96% to 97%.

Compared with B11, B12 is higher in “CRF2R Emax” value: 75% for the first, 100% for the second.

First: B13
Second: B14
The “CRF2R Emax” value of the first is higher: 100% for the first, 97.8% for the second.
